Laboratory results from paper PMC3818223, “A RhoC Biosensor Reveals Differences in the Activation Kinetics of RhoA and RhoC in Migrating Cells” (PLoS ONE, 2013).

Experiments:
[1] = molecular target: T1, RhoC Q63L, full length, as the C-terminal module of the RhoC FLARE.sc biosensor (UniProt P08134 1-193, Q63L); experiment: FRET or BRET; intramolecular FRET of the single-chain biosensor (binding domain-mCerulean-linker-mVenus-RhoC); fluorometry of cold, live HEK293T cell suspensions in PBS 48 h after transfection, excitation 433 nm, emission 450-600 nm, FRET/CFP ratio; settings: partners not purified
T1 construct: RhoC GTPase, full length, with Q63L; On one chain with m1, as m2; also called constitutively active mutant; source: HEK293T, transfected (Lipofectamine2000), in live cell suspension; not shown: monomeric Venus, N-terminal, kept

[2] = molecular target: T2, RhoC G14V, full length, as the C-terminal module of the RhoC FLARE.sc biosensor (UniProt P08134 1-193, G14V); experiment: as above; settings: partners not purified
T2 construct: RhoC GTPase, full length, with G14V; On one chain with m1, as m2; also called constitutively active mutant; source: HEK293T, transfected (Lipofectamine2000), in live cell suspension; not shown: monomeric Venus, N-terminal, kept
T2 sequence (P08134 whole entry G14V): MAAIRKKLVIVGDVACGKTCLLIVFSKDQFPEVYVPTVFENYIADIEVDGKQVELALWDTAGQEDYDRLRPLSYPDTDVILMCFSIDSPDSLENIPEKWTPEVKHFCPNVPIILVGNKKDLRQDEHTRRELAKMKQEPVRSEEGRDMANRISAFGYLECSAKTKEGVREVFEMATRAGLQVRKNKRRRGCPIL

T1 sequence (P08134 whole entry Q63L, the tested form may be a part): as the sequence (P08134 whole entry G14V) above, with V14G, Q63L counted along it

increase in FRET ratio against the T19N biosensor [1]: 41% | increase in FRET ratio against the T19N biosensor [2]: 41%
B1: ROCK1 Rho binding domain (RBD, amino acids 905-1046), as the N-terminal module of the RhoC FLARE.sc biosensor (domain or fragment, UniProt Q13464 905-1046, looked up)
chain: ARGLLEEQYFELTQESKKAASRNRQEITDKDHTVSRLEEANSMLTKDIEILRRENEELTEKMKKAEEEYKLEKEEEISNLKAAFEKNINTERTLKTQAVNKLAEIMNRKDFKIDRKKANTQDLRKKEKENRKLQLELNQERE
notes: It is split from RhoC here so that the intramolecular pair can be written; Subcloned into pTriEX-HisMyc4 (Novagen), which may add His and Myc tags; source: HEK293T, transfected (Lipofectamine2000), in live cell suspension; not shown: monomeric Cerulean, C-terminal, kept
